# Assay results published in IntAct's records for PubMed 11733528.
# B1: Early protein (Human adenovirus C serotype 5 (HAdV-5)), P03255-2 (parent)
# chain: MRHIICHGGVITEEMAASLLDQLIEEVLADNLPPPSHFEPPTLHELYDLDVTAPEDPNEEAVSQIFPDSVMLAVQEGIDLLTFPPAPGSPEPPHLSRQPEQPEQRALGPVSMPNLVPEVIDLTCHEAGFPPSDDEDEEGPVSEPEPEPEPEPEPARPTRRPKMAPAILRRPTSPVSRECNSSTDSCDSGPSNTPPEIHPVVPLCPIKPVAVRVGGRRQAVECIEDLLNEPGQPLDLSCKRPRP
# partner: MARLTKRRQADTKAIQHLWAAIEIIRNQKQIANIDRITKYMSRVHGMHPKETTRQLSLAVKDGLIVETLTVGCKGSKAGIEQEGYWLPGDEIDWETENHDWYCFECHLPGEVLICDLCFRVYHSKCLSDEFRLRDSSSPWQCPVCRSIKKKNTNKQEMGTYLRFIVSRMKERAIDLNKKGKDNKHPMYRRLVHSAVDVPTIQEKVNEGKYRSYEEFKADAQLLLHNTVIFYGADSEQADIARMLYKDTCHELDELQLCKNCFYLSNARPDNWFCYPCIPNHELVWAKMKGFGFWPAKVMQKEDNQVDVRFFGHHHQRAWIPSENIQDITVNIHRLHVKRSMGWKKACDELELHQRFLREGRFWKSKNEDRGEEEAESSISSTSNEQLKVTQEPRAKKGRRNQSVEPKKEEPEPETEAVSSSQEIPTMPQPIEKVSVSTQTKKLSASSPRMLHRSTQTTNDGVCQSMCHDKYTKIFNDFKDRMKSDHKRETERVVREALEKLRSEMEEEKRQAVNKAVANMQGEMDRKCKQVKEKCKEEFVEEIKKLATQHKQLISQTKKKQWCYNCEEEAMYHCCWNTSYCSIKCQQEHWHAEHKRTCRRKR
# Variants of: B1
# Conditions: with zmy11_human ZMYND11, Q15326
row,Variant,effect of a mutation on the interaction
1,L115A,disrupting interaction
